Results published in the RNAGym collection of RNA variant scans (doi:10.1073/pnas.2313332121).
This sample holds only a part of the variants without activity.

B1: TPR 5TU (parent)
chain: GGAUCUUCUCGAUCUAACAAAAAAGACAAAUCUGCCACAAAGCUUGAGAGCAUCUUCGGAUGCAGAGGCGGCAGCCUUCGGUGGCGCGAUAGCGCCAACGUUCUCAACUAUGACACGCAAAACGCGUGCUCCGUUGAAUGGAGUUUAUCAUG

Variants of: B1
Test: polymerase ribozyme fitness, log enrichment relative to wild type (log ratio); higher = more active; in vitro selection for triplet polymerase activity
Outline: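 Input and output libraries were sequenced on Illumina after a single in vitro selection round, run in triplicate on PCR-built, transcribed mutant libraries of each subunit of a heterodimeric triplet polymerase ribozyme. Selection annealed libraries to a biotinylated primer, the partner subunit and triplets, incubated them frozen at −7 °C, then gel-excised extended constructs for streptavidin-bead capture and RT-PCR. Genotypes with ≥10 input reads and ≥1 read per output were kept. Fitness is the logarithm, taken in base 2, of genotype enrichment divided by wild-type enrichment, using inverse-variance-weighted replicate averages.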

Variant | polymerase ribozyme fitness (log ratio)
GGAUCUUCUCGAUCUAACAAAAAAGACAACUCUGCCACAAAGCUUGAGUGCAUCUUGGGAUGCAGAGGCGGCAGCCUUAGGUGGCGCGAUAGCGCUAACGUUCUCAUCUAUGACACGCAAAACGCGUGCUCCGUUGAAUGGAGUUUAUCAUG [A30C A49U C57G C79A C96U A107U] | ≤ -4.2
GGAUCUUCUUGAUCUAACAAAAAAGACAAAUCUGCCACAAAGCUUGAGAGCAUCUUCGGAUGCAGAGGCGGCAGCCUUCGGUGGCGCGAUAGCGCUAACGUUCUCAACUAUGACACGCAAAACGCGUGCUCCGUUGAAUGGAGUUUAUCAUG [C10U C96U] | -2.51
GGAUCUUCUCGAUCUAACAAAAAAGACAAAUAUGCCACAAAGCUUGAGAGCAUCUUCGGAUGCAGAGGCGUCAGCCUUCGGUGGCGCGAUGGCGCCAACGUUCUCAACUAUGACACGCGUAACGCGCGCUCCGUUCAAUGGAGUUUAUCAUG [C32A G71U A91G A119G A120U U127C G136C] | ≤ -4.2
GGAUCUUCUCGAUCUAACAAAAAAGGCAAAUAUGACACAAAGCUUGAGAGCAUCUUCGUAUGCAGAGGCGGCAGCCUUCGGUGGCGCGACAGGGCCAACGUUCUCAACUAUGACACGCAAAACGCGUGCUCCGUUGAAUGGAGUUGAUCAUG [A26G C32A C35A G59U U90C C93G U146G] | ≤ -4.2
GGAUCUUCUCGAUCUAACAAAAAAGACAAAUCUGCCACAAAGCUUGAGAGCAUCUUCAGAUGCAGAGGCGGCAGCCUUCGGUGGCGCGAUAGCGCCAACGUUCUCAACUAUGACACGCAAAACGCGUGCUCCGUUGAAUGUAGUUUAUCAUG [G58A G141U] | 0.0168
GGAUCUUCUCGAUCAAACAAAAAAGACAAAUCUGCCACAAAGCUUGAGAGCAUCUACGGAUGCAGAGGCAGCAGCCUUCGGUGGCGCGAUAGCGCCAACGUUCUCAACUAUGACACGCAAAACGCGUGCUCCGUUGAAUGGAGUUUAUCAUG [U15A U56A G70A] | -4.2
GGAUCUUCUCGAUCUAACAAAAAAGACAAAUCUGCCACAUAGCUUGAGAGCAUCUUCGGAUGCAGAGGCGGCAGCCUUCGGUGGCGCGAUAGCGCUAACGUUCUCAACUAUGACACGUAAAACGCGUGCUCCGUUGAAUGGAGUUUAUCAUG [A40U C96U C118U] | -0.191
GGAUCUUCUCAAUCUAACAAAAAAGACAAAUCUGCCACAAAGCUUGAGAGCAUCUUCGGAUGCAGAGGCGGCAGCCUUCGGUGGCGCGAUAGCGCCAACGUUCUUAACUAUGACACGCAAAACGCGUGCUCCGUUGAAUGGAGUUUAUCAUG [G11A C105U] | -1.12
GGAUGUUCUCUAUCUAUCAAAAAAGACAAAUCUGCCACUAAGCUUGAGAGCAUCUUGGGAUGCAGAGGCGGCGGCCUUUGGUGGCGCGAUAGCGCCAACGUUCUCAACUAUGACACGCAAAACGCGUGCUCCGUUGAGUGCAGGUUAUCAUG [C5G G11U A17U A39U C57G A73G C79U A138G G141C U144G] | ≤ -4.2
GGAUCUUCUCGAUCUAAUAAGAAAGACAAAUCUGCCACAAAGCUUGAGAGCAUCUUCGGAUGCAGAGGCGGCAGCCUUCGGUGGCGCGAUAGCGCCAAGGUUCUCAACUAUGACACGCAAAACGCGUGCUCCGUUGAAUGGAGUUUUUCAUG [C18U A21G C99G A147U] | -0.0193
GGAUCUUCUCGAUCUAACAGAAAAGACAAAUCUGCCACAAAGCUUGAGAGCAUCUUCGGAUGCAGAGGCGGCAGCCUUCGGUGGCGCGAUAGCGCCAACGUUCUCAACUAUGACACGCAAAACGCAUGCUCCGUUAAAUGGAGUUUAUCAUG [A20G G126A G136A] | 0.15
GGAUCUUCUCGAUCUAACAAAAAAGACACAUCUGCCACAAAGCUUGAGAGCAUCUUCGGAUGCAGAGGCGGCAGCAUUCGGUGGCGCGAUUGCGCCAACGUUCUCAACUGUGACACGCAAAACGCGUGCUCCGUUGAAUGGAGUUUAUCAUG [A29C C76A A91U A110G] | ≤ -4.2
GGAUCUUCUCGAUCUAACAAAAAAGACAAAUCUGCCACAAAGCUUGAGAGCAUCUUCGGAUGCAGAGGCGGCAGCCUUCGGUGGCGCGAUAGCGCCAACGUUCUCACCUAUGACACGCAAAACGCGUGCUCCGUUGAAUGGAGUUUAUCAUG [A107C] | -3.58
GGAUCUUCUCGAUCUAACAAAAAAGACAAAUCUGCCACAAAGCUUGAGAGCAUCAUCGGAUGCAGAGGCGGCAGCCUUCGGUGGCGCGAUAGCGCCAACGUUCUCGACUAUGACACGCCAAGCGCGUGCUCCGUUGAAUGGAGUUUAUCAUG [U55A A106G A119C A122G] | -0.869
GGAUCUUCUCGAUCUAACAAAAAAGACAAAUCUGCCACAAAGCUUGAGAGCAUCUUCGGAUGCAGAGGGGGCAGCCUUCGGUGGCGCGAUGGCGCCAACGUUCUCAACUAUGACACGCAAAACGCGUGCUCCGUUGAAUGGAGUUUAUCAUG [C69G A91G] | -3.88
GGAUCUUCUCGAUCUAACACAAAAGACAAAUCUGCCACAAAGCUUGAGAGCACCUUCGAAUGCAGAGGCGGCAGCCUUCGGUGGCGCGAUAGCGCCAACGUUCUCAACUAUGACACGCAAAACGCGUGCUCCGUUCAAUGGAGUUUAUCAUG [A20C U53C G59A G136C] | -3.81
GGAUCUUCUCGAUCUAACAAAAAAGACAAAUCUGCCACAAAGCUUGACAGCAUCUUCCGAUGCAGAGGCGGCAGCCUUCGGUGGCGCGAUAGCGCCAAGGUUCUCAACUAUGACACGCAAAACGCGUGCUCCGUUGAAUGGAGUUUAUCAUG [G48C G58C C99G] | ≤ -4.2
GGAUCUUCUCGAUCUAACUAAAGAGACAAAUCUGCCACAAAGCUUGAGAGCAUCUUCGGAUGCAGAGGCGGCAGCCUUCGGUGGCGCGAUAGCGCCAACGUUCUCAACUAUGACACGCAAAACGCGUGCUCCGUUGAAUGGAGUUUAUCAUG [A19U A23G] | -3.44
GGAUCUUCUCGAUCUAACAAAAAAGACAAAUCUGCCACAAACCUUGAGAGCAUCUUCGGAUGCAGAGGCGGCAGCCUUCGGUGGCGCGAUAGCGCCAACGUUCUCAACUAAGACACGCAAAACGCGUGCUCCGUUGAAUGGAGUUUAUCAUG [G42C U111A] | ≤ -4.2

Variant | polymerase ribozyme fitness (log ratio)
GGAUCUUCUCGAUCUAACAAAAAAGACAAAUCUGCAACAAAGCUUGAGAGCAUCUUCGGAUGCAGAGGCGGCAGCCUUCGGUGGAGCGAUAGCGCCAACGUUCUCAACUAUGACACGUAAAACGCGUGCUCCGUUGAAUGGAGUUUAUCAUG [C36A C85A C118U] | -3.82
GGAUCUUCUCGAUCUAACAAAAAAGACAAAUCUGCCACAAGGCUUGAGAGCAUCUUCGGUUGCAGAGGCGGCAGCCUUCGGUGGCGCGAUAGCGCCAACGUUCUCAACUAUGACACGCAACACGCGUGCUCCGUUGAAUGGAGAUUAUCAUG [A41G A60U A121C U144A] | -1.13
GGAUCUUCUCGAUCUAACAAAAAAGACAAAUCUGCCACAAAGCUUGAGAGUAUCUUCGGAUGCAGAGGCGGCAGCCUUCAAUGGCGCGAUAGCGCCAACGUUCUCAACUAUGACACGCAAAACGCGUGCUCCGUUGAAUGGAGUUUAUCUUG [C51U G80A G81A A150U] | -1.5
GGAUCUUCUCGAUCUAACAAAAAAGACAAAUCUGCCACAAAGCGAGCGAGCAUAUUUGGAAGCAGAGGCGGCAGCCUUCGGUGGCGCGAUAGUGCCAACGUUCUCAACUAUGACACGCAAAACGCGUGCUCCGUUGAAUGGAGUUUAUCAUG [U44G U45A A47C C54A C57U U61A C93U] | ≤ -4.2
GGAUCUUCUCGAUCUAACAAAAAAGACAAAUCUGCCACAAAGCUUGAGAGCAUCUUUGGGUGCAGAGGCGGCAGCCUUCGGUGGCGCGAUAGCGCCAACGUUCUCAACUAUGACACGCAAAACGCGUGCUCCCUUGAAUGGAGUUUAUCAUU [C57U A60G G133C G152U] | -3.31
GGAUCUUCUCGAUCUAACAAAAAAGACAAAUCUGGCACAAAGCUUGAGAGCGUCUUCGGAUGCAGAGGCGGCAGCCUUCGGUGGCGCGAUAGCGCUAACGUUCUCAACUAUGACACGCAAAACGCGUGCUCCGUUGAAUUGAGUUUAUCAUG [C35G A52G C96U G140U] | -4.08
GGAUCUUCUCGAUCUAACAAAAAAGACAAAUCUGCCACAAAGCUUGAGAGCAUCUUCGGAUGCAGAGGCGGCAGCCUUCGCUGGCGCGAUAGCGCCAACGUUCUCAACUAUGACACCCAAAACGCGUGCUCCGUUGAAUGGAUUUUAUCAUG [G81C G117C G143U] | -4.1
GGAUCUUCUCGAUCUAACAAAAAAGACAAAUCUGCCACAAAGCUAGAGAGCAUCUUCGGAUGCAGAGGCGGCAGCCUUCGGUGUCGCGAUAGCGCCAACGUUCUCAACUAUGACACGCAAAACGCGUGCUCCGUUGAAUGGAGUUUAUCAUG [U45A G84U] | ≤ -4.2
GGAUCUUCUCGAUCUAACAAAAAAGACAAAUCUGCCACAAUGCUUGAGAGCAUCUUCGGAUGCAGAGGCGGCAGCCUUCGGUGGCGCGAUAGCGCCAAAGUUCUCAUCUAUGACACACAAAUCGCGUACUCCGUUGAAUGGAGUUUAUCAUG [A41U C99A A107U G117A A122U G128A] | ≤ -4.2
GGAUCUUCUCGAUCUAACAAAAAAGACAAAUCUGCCACAAAGCUUGAGGGCAUCUUCGGUUGCAGAGGCGGCAGCCUCCGGUGGCGCGAUAGCGACAACGUUCUCAACUAUGACACGCAAAACGCGUGCUCCGUUGAAUGGCGUUUAUCAUG [A49G A60U U78C C95A A142C] | ≤ -4.2
GGAUCUUCUCGAUCUAACAAAAAAGACAAAUCUGCCACAAAGCUUGAGAGCAUUUUCGGAUGCAGAGGCGGCAGCCUUCGGUGGCGCGAUAGCGCCAACGUUCUCAACUAUGACACCCAAAAUGCGUGCUCCGUUGAAUGGAGUUUAUCAUG [C54U G117C C123U] | -0.0466
GGAUCUUCUCGAUCUAACAAAAAAGACAAAUCUGCCAUAAAGCUUGAGAGCAUCUUCGGAUGCAGAGUCGGCAGCCUUCGGUGGCGCGAUAGCACCAACGUUCUCAACUAUGACACGCAAAACGCGUGCUCCGUUGAAUGGAGUUUAUCAUG [C38U G68U G94A] | ≤ -4.2
GGAUCUUCUCGAUCUAACAAAAAAGACAAAUCUGCCACAUAGCUUGAGAGCAUCUGCGGAUGCAGAGGCGGUAGCCUUCGGUGGCGCGAUGGCGCCAACGUUCUCAACUAUGACACGCAAAACGCGUGCUCCGUUGAAUGGAGUUUAUCAUG [A40U U56G C72U A91G] | -3.52
GGAUCUUCUCGAUCUAUCAAAAAAGACAAAUCUGCCACAAAGCUUGAGAGUAUCUUCGGAUGCAGAGGCGGCAGCCUUCGGUGGCGCGAUAGCGUCAACGUUAUCAACUAUGACACGCAAAACGCGUGCUCCGUUGAAUGGAGUUUAUCAUG [A17U C51U C95U C103A] | -1.47
GGAUCUUCUCGAUCUAACAAAAAAGACAAAUCUGCCACAAAGCUUGAGAGCAUCUACGGAUGCAGAGGCGGCAGCCUUCGGUGGCGCGAUAGCGCCAACGUUCUCAACUAUGACACGCAAAACGCGUGCUCCGUUGAAUGGAGUUUACCAUG [U56A U148C] | -1.25
GGAUCUUCUCGAUCUAACAAAAAAGACAAAUCUGCCACAAAGCUUGAGAGCAUCUUCGGAUGCAGAGGCGGUAGCCUUCGGUGGCGCGAUAGCGCCAACGUUCUCAACUAUGACACGCAAAACGCGUGCUCCGUUGAAUGGAGUUGAUCAUG [C72U U146G] | -0.793
GGAUCUUCUCGAUCUAACAAAAAAGACAAAUCUGCCACAAAGCUUGUGAGCAUCUUCGGAGGCAGAGGCGGCAGCCUUCGGUGGCGCGAUAGCGCCAACGUUCUCAACUAUGACACGCAAAACGCGUGCUCCGAUGAAUGGAGUUUAUCAUG [A47U U61G U134A] | -3.8
GGAUCUUCUCGAUCUAACAAAAAAGACAAAUCUGCCACAAAGCUUGAGAGCAUCUUCGGAUGCAGAGGCGGCAGCCUUCGGUGGGGCGAUAGCGCCAUCGUUCUCAACUAUGACACGCAAAACGCGUGCUCCGUUGAAUGGAGUUUAUCAUG [C85G A98U] | -2.9
GGAUCUUCUCGAUCUAACAAAAAAGACAAAUCUGCCACAAAGCUUGAGAGAAUCUUCGUAUGCGGAGGCGGCAGCCUUCGGUGGUGCGAUAGCGCCAAGGUUCUCAACUAUGGCACGCAGAACGCGGGCUCCGUUGAAUUGAGUUUAACAUG [C51A G59U A64G C85U C99G A113G A120G U127G G140U U148A] | ≤ -4.2
